Test results reported in FireProtDB (doi:10.1021/bi00212a026).

B1: Ribonuclease, P00648 (parent)
chain: MMKMEGIALKKRLSWISVCLLVLVSAAGMLFSTAAKTETSSHKAHTEAQVINTFDGVADYLQTYHKLPDNYITKSEAQALGWVASKGNLADVAPGKSIGGDIFSNREGKLPGKSGRTWREADINYTSGFRNSDRILYSSDWLIYKTTDHYQTFTKIR

Variants of: B1
Conditions: Bacillus amyloliquefaciens; pH 6.3; 25 °C; Urea; Fluorescence; MES 50 mM; NaCl 0.15 M; reversible: yes; structure 1BNI; whole UniProt chain shown

Row | Variant | ddG of mutation (higher = less stable) | denaturant m value | denaturant midpoint (higher = more stable) | unfolding free energy
1 | MMKMEGIALKKRLSWISVCLLVLVSAAGMLFSTAAKTETSSHKAHTEAQVANTFDGVADYLQTYHKLPDNYITKSEAQALGWVASKGNLADVAPGKSIGGDIFSNREGKLPGKSGRTWREADINFTSGFRNSDRILYSSDWLIYKTTDHYQTFTKIR [I51A Y125F] | 2.53 kcal/mol | 1.95 kcal/mol/M | 3.21 M | 6.26 kcal/mol
2 | MMKMEGIALKKRLSWISVCLLVLVSAAGMLFSTAAKTETSSHKAHTEAQVANTFDGVADYLQTYHKLPDNYITKSEAQALGWVASKGNLADVAPGKSIGGDIFSNREGKLPGKSGRTWREADVNYTSGFRNSDRILYSSDWLIYKTTDHYQTFTKIR [I51A I123V] | 1.86 kcal/mol | 1.92 kcal/mol/M | 3.61 M | 6.93 kcal/mol
3 | MMKMEGIALKKRLSWISVCLLVLVSAAGMLFSTAAKTETSSHKAHTEAQVANTFDGVADYLQTYHKLPDNYITKSEAQALGWVASKGNLADVAPGKSVGGDIFSNREGKLPGKSGRTWREADINYTSGFRNSDRILYSSDWLIYKTTDHYQTFTKIR [I51A I98V] | 2.63 kcal/mol | 2.11 kcal/mol/M | 2.92 M | 6.16 kcal/mol
4 | MMKMEGIALKKRLSWISVCLLVLVSAAGMLFSTAAKTETSSHKAHTEAQVINTFDGVADYLQTYHKLPDNYITKSEAQALGWVASKGNLADVAPGKSIGGDIFSNREGKLPGKSGRTWREADTNYTSGFRNSDRILYSSDWLIYKTTDHYQTFTKIR [I123T] | 2.69 kcal/mol | 1.87 kcal/mol/M | 3.26 M | 6.1 kcal/mol
